Test results from patent publication US20090297439A1 (METHERESIS TRANSLATIONAL RESEARCH, published 2009).

Molecular target: T1, Met (UniProt P08581 25-932, limits assumed)
T1 construct: Met as the partner of the printed Kd; The assay and the construct are not described; also called HGFR; hepatocyte growth factor receptor
Assay: not stated (given as a property of the antibody in Material and Methods)

T1 sequence (P08581 25-932 limits assumed): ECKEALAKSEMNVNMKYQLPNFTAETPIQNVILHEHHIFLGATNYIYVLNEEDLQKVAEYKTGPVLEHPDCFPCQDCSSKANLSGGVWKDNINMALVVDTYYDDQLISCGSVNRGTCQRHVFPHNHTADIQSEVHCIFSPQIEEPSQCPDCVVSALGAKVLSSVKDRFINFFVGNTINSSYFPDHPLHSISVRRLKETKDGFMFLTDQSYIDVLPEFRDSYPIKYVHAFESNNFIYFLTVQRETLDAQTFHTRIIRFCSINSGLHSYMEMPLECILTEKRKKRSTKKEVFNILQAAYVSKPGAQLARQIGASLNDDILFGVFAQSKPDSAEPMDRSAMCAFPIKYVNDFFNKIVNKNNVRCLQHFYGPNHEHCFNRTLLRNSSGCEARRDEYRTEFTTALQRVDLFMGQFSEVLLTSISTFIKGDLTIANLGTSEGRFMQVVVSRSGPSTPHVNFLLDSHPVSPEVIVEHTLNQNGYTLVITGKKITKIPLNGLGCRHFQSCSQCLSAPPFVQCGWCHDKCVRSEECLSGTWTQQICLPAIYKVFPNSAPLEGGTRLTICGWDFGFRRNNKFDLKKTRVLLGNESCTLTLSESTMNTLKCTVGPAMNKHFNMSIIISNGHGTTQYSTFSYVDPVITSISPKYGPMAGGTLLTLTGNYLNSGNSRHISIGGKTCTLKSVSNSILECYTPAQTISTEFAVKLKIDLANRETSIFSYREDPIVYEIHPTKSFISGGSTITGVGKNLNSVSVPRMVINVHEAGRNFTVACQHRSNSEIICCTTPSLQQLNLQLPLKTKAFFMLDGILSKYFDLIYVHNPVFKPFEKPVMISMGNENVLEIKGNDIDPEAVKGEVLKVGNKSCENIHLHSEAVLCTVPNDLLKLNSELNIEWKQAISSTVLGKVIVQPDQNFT

B1: murine IgG2a MAb DN30 (antibody, V domains shown)
VH: QVQLQQPGTELVKPGASVKLSCKASGYTFTSYWIHWVKQRPGQGLEWIGEINPSSGRTNYNEKFKNKVTVTVDKSSTTAYMQLSNLTSEDSAVYYCASRGYWGQGTTLTVSS
VL: DIVLTQSPASLAVSLGQRATISCKASQSVDYDGGSYMSWFQQRPGQPPKLLISAASNLESGIPARFSGSGSGTDFTLNIHPVEEEDVATYYCQQSYEDPLTFGAGTKLELKR
notes: Murine IgG2a, intact MAb; also called anti-Met monoclonal antibody produced by the hybridoma cell line ICLC PD 05006
  Kd: 2.64 nM
